From IntAct's records for PubMed 31515488

B1: Paraneoplastic antigen-like protein 5 (Homo sapiens), Q96PV4 (parent)
chain: MALTLLEDWCKGMDMDPRKALLIVGIPMECSEVEIQDTVKAGLQPLCAYRVLGRMFRREDNAKAVFIELADTVNYTTLPSHIPGKGGSWEVVVKPRNPDDEFLSRLNYFLKDEGRSMTDVARALGCCSLPAESLDAEVMPQVRSPPLEPPKESMWYRKLKVFSGTASPSPGEETFEDWLEQVTEIMPIWQVSEVEKRRRLLESLRGPALSIMRVLQANNDSITVEQCLDALKQIFGDKEDFRASQFRFLQTSPKIGEKVSTFLLRLEPLLQKAVHKSPLSVRSTDMIRLKHLLARVAMTPALRGKLELLDQRGCPPNFLELMKLIRDEEEWENTEAVMKNKEKPSGRGRGASGRQARAEASVSAPQATVQARSFSDSSPQTIQGGLPPLVKRRRLLGSESTRGEDHGQATYPKAENQTPGREGPQAAGEELGNEAGAGAMSHPKPWET

Variants of: B1
Details: with arpc4_human ARPC4, P59998

Effect of a mutation on the interaction, with no effect:
T261A
V274M
R312Q

Variants of: B1
Details: with zfy26_human ZFYVE26, Q68DK2
Sequence of zfy26_human ZFYVE26, Q68DK2 (Q68DK2 whole entry): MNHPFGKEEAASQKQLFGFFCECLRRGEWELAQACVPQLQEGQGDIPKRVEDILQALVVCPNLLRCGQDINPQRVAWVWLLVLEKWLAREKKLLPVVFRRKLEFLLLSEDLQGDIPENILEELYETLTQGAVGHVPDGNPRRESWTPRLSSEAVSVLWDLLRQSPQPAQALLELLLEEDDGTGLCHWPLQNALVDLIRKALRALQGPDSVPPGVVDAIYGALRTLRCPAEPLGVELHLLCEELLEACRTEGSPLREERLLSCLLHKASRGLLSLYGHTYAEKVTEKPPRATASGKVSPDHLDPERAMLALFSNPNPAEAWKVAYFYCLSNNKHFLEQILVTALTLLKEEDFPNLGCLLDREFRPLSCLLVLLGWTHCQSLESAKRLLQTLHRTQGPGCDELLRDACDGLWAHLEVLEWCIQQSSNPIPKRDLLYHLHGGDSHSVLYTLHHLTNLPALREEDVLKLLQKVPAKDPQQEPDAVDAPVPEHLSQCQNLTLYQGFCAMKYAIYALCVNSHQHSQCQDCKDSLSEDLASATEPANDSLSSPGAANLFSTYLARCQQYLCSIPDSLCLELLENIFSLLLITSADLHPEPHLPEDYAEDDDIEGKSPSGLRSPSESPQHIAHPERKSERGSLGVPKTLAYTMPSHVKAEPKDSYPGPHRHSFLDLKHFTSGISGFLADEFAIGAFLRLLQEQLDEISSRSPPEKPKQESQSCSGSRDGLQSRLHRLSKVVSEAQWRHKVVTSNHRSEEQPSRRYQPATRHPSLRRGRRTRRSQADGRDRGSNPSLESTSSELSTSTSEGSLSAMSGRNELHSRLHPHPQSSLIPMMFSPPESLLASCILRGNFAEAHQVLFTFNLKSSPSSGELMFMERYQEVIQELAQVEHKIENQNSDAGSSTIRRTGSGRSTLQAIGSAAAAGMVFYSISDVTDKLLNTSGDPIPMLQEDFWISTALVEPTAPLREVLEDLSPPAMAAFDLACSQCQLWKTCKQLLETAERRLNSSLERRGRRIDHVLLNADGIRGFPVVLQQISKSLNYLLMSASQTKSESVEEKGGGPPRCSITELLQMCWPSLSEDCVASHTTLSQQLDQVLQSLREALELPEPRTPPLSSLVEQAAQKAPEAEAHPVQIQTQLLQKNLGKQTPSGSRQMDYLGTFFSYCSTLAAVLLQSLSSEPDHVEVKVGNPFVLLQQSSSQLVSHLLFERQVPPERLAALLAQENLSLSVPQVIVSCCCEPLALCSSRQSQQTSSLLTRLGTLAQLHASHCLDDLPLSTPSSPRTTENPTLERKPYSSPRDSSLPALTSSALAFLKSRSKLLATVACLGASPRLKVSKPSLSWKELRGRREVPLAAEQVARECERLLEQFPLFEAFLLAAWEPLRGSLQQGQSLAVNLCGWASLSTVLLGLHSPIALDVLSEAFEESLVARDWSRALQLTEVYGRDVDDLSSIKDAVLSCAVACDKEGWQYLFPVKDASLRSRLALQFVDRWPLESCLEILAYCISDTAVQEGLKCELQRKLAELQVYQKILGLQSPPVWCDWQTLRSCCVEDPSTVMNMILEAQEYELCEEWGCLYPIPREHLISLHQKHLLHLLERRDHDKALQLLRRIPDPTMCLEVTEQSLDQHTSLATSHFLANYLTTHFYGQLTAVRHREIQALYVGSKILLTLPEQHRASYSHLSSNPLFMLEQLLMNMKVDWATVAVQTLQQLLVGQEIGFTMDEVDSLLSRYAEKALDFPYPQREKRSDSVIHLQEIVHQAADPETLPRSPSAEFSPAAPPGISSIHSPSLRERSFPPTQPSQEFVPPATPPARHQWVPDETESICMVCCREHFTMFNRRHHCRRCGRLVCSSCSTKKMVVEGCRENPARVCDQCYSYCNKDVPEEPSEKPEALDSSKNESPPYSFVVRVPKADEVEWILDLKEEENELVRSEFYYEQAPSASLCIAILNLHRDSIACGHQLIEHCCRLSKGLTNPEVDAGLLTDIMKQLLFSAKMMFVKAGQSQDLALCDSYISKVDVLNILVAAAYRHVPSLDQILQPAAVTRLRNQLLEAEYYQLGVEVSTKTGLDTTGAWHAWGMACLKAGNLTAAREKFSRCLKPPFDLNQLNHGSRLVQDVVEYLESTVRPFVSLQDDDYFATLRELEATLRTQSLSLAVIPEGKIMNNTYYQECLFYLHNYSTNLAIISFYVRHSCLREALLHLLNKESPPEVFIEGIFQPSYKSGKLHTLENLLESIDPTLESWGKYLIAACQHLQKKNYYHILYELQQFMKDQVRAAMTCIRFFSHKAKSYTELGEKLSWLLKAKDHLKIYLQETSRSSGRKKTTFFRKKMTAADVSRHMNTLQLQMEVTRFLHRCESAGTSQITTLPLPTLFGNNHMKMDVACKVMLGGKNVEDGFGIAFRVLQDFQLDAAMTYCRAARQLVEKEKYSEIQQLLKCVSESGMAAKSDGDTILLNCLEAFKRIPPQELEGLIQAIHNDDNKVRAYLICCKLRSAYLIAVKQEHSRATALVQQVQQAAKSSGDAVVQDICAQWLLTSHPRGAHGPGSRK

Effect of a mutation on the interaction, with no effect:
T261A
V274M
R312Q

Variants of: B1
Details: with ccnc_human CCNC

Effect of a mutation on the interaction, with no effect:
T261A
V274M
R312Q

Variants of: B1
Details: with aapk1_human PRKAA1, Q13131
Sequence of aapk1_human PRKAA1, Q13131 (Q13131 whole entry, looked up): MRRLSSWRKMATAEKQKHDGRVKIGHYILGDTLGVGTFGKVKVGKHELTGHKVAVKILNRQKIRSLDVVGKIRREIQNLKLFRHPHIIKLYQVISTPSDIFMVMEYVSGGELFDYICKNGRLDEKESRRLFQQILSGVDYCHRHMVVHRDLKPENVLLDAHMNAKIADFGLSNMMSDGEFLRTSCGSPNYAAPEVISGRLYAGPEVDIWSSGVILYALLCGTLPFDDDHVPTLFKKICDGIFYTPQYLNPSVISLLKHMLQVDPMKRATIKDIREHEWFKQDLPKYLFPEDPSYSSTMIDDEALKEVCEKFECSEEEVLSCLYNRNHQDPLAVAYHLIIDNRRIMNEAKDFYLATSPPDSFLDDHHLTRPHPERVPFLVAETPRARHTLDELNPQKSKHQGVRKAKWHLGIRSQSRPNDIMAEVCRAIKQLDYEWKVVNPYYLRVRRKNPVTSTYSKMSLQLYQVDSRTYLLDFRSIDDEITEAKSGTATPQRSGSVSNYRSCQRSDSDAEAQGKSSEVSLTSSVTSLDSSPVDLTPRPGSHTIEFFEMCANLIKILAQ

Effect of a mutation on the interaction, with no effect:
T261A
V274M
R312Q
